Laboratory results as given in paper PMC10522976 (Molecular Therapy Oncolytics, 2023).

B1: VH 3C9 (human antibody heavy chain variable domain) (VHH)
VHH: DVQLVESGGGVVQPGRSLRLSCAASGFTFSSYAMHWVRQAPGKGLEWVSSISGNSLYKYYADSVKGRFTISRDDSTNTLYLQMNSLRAEDTATYYCTRHWAVGNWGQGTLVTVSS
B2: human recombinant mesothelin (MSLN), residues 296-606, His tag (domain or fragment, UniProt Q13421 296-606, looked up)
chain: EVEKTACPSGKKAREIDESLIFYKKWELEACVDAALLATQMDRVNAIPFTYEQLDVLKHKLDELYPQGYPESVIQHLGYLFLKMSPEDIRKWNVTSLETLKALLEVNKGHEMSPQVATLIDRFVKGRGQLDKDTLDTLTAFYPGYLCSLSPEELSSVPPSSIWAVRPQDLDTCDPRQLDVLYPKARLAFQNMNGSEYFVKIQSFLGGAPTEDLKALSQQNVSMDLATFMKLRTDAVLPLTVAEVQKLLGPHVEGLKAEERHRPVRDWILRQRQDDLDTLGLGLQGGIPNGYLVLDLSMQEALSGTPCLLGP

What was measured:
mouse MSLN = mouse MSLN (Mus musculus, UniProt Q61468); assay: ELISA
mouse MSLN, sequence (Q61468 36-600): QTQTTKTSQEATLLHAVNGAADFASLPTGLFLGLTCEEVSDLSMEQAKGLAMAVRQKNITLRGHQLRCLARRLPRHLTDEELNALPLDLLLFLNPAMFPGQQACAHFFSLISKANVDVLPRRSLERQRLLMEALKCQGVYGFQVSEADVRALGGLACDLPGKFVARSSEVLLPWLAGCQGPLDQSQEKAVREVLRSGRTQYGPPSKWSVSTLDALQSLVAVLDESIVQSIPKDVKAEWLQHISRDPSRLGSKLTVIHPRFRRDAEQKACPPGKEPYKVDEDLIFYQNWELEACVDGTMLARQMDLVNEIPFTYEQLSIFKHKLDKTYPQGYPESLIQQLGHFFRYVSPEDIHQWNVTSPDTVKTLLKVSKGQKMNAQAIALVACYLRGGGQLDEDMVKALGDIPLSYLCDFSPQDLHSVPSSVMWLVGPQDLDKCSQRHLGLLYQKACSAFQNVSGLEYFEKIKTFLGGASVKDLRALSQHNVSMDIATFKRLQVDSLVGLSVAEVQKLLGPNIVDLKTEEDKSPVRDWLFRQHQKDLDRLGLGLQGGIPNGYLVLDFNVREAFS

[1] = target: B2; assay: ELISA
[2] = target: B2; assay: SPR
VH-Fc 3C9-YF750 = VH-Fc 3C9-YF750 (human); assay: ELISA
[3] = target: VH-Fc 3C9 (VH 3C9 fused with human IgG1 Fc, bivalent) (human); assay: SPR

binding result (mouse MSLN)	EC50 [1]	Kd [2]	binding result (VH-Fc 3C9-YF750)	Kd [3]	Binder
no binding	< 10 nM	< 3 nM	–	–	B1
–	–	–	binds	7 nM	B2
